Measured values from patent publication US20230272055A1 (Incyte, published 2023).

B1: anti-mutCALR antibody clone 10 (antibody, human IgG1, lambda, V domains shown)
VH: EVQLVQSGAEVKKPGASVKVSCKVSGYTLTELSMQWVRQAPGKGLEWMGGFDPDDGETMYAEKFQGRLTVTEDTSTDTVYMELRSLTSEDTALYFCATSPGYDFFDYWGQGTLVTVSS
VL: SYELTQPPSVSVAPGQTARIPCGGNNIGSEGVHWYQQKPGQAPVLVVYDDSDRPSGIPERFSGSNSGNTATLTISRVEAGDEADYYCQVWDSSNDLLIFGGGTKLTVLG
notes: human IgG1
B2: anti-mutCALR antibody clone 16 (antibody, human IgG1, lambda, V domains shown)
VH: EVQLVQSGAEVKKPGASVKVSCKVSGYTLTELSMQWVRQAPGKGLEWMGGFDPDDGETMYAEKFQGRLTVTEDTSTDTVYMELRSLTSEDTALYFCATSPGYDFFDYWGQGTLVTVSS
VL: SYVLTQPPSVSVAPGKTARITCGGNNTGSKSVHWYQQKPGQAPVLVVYDDSDRPSGIPERFSGSNSGNTATLTINRVEAGDEADYYCQVWDSSNDLLIFGGGTKLTVLG
notes: human IgG1
B3: anti-mutCALR antibody clone 12 (antibody, human IgG1, lambda, V domains shown)
VH: EVQLVQSGAEVKKPGASVKVSCKVSGYTLTELSMQWVRQAPGKGLEWMGGFDPDGGETMYAEKFQGRLTVTEDTSTDTVYMELRSLTSEDTALYFCATSPGYDFFDYWGQGTLVTVSS
VL: SYVLTQPPSVSVAPGQTARVSCGGNNIGSKSVNWYRQKPGQAPVLVIYDDSDRPSGIPERFSGSNSGNTATLTINRVEAGDEADYYCQVWDSSNDLLIFGGGTKLTVLG
notes: human IgG1
B4: anti-mutCALR antibody clone 19 (antibody, human IgG1, lambda, V domains shown)
VH: EVQLVQSGAEVKKPGASVKVSCKVSGYTLTELSMQWVRQAPGKGLEWMGGFDPDDGETMYAEKFQGRLTVTEDTPTDTVYMELRSLTSEDTALYFCATSPGYDFFDYWGQGTLVTVSS
VL: SYVLTQPLSVSVALGQTARITCGGSNIGDIRVHWYQQKPGQAPVLVVYDDSDRPSGIPERFSGSNSGNTATLTINRVEAGDEADYYCQVWDSSNDLLIFGGGTKLTVLG
notes: human IgG1
B5: anti-mutCALR antibody clone 18 (antibody, human IgG1, lambda, V domains shown)
VH: EVQLVQSGAEVKKPGASVKVSCKVSGYTLTELSMQWVRQAPGKGLEWMGGFDPDDGETMYAEKFQGRLTVTEDTSTDTVYMELRSLTSEDTALYFCATSPGYDFFDYWGQGTLVTVSS
VL: SYVLTQPPSVSVAPGKTARITCGGNNIGSKSVHWYQQKPGQAPVLVVYDDSDRPLGIPERFSGSNSGNTATLTINRVEAGDEADYYCQVWDSSNDLLIFGGGTKLTVLG
notes: human IgG1
B6: anti-mutCALR antibody clone 21 (antibody, human IgG1, lambda, V domains shown)
VH: EVQLVQSGAEVKKPGASVKVSCEVSGYTLTELSMQWVRQAPGKGLEWMGGFDPDDGETMYAEKFQGRLTVTEDTSTDTVYMELRSLTSEDTALYFCATSPGYDFFDYWGQGTLVTVSS
VL: SYVLTQPPSVSVAPGQTARVSCGGNNIGSKSVNWYRQKPGQAPVLVIYDDSDRPSGIPERFSGSNSGNTATLTISRVEAGDEADYYCQVWDSSNDLLIFGGGTKLTVLG
notes: human IgG1
B7: anti-mutCALR antibody clone 20 (antibody, human IgG1, lambda, V domains shown)
VH: EVQLVQSGAEVKKPGASVKVSCKVSGYTLTELSMQWVRQAPGKGLEWMGGFDPDDGETMYAEKFQGRLTVTEDTSTDTVYMELRSLTSEDTALYFCATSPGYDFFDYWGQGTLVTVSS
VL: SYVLTQPPSVSVAPGKTARITCGGNNIGSKGVHWYQQKPGQAPVLVVYDDSDRPSGIPERFSGSNSGNTATLTINRVEAGDEADYYCQVWDSSNDLLIFGGGTKLTVLG
notes: human IgG1
B8: anti-mutCALR antibody clone 13 (antibody, human IgG1, lambda, V domains shown)
VH: QVQLVQSGAEVKKPGASVKVSCKVSGYTLTELSMQWVRQAPGKGLEWMGGFDPDDGETMYAEKFQGRLTVTEDTSTDTVYMELRSLTSEDTALYFCATSPGYDFFDYWGQGTLVTVSS
VL: not shown
notes: human IgG1

The binders below were run against T1, Recombinant MBP-mutCALR Type 1 fusion protein (human) (assay: SPR, IgG captured, 1:1 fit, Exp. 1).
T1 construct: custom made at Cepter; also called recombinant mutCALR protein
Method: Experiment 1: Recombinant MBP-mutCALR Type 1 fusion protein was custom made at Cepter (cepterbiopartners.com). Data for the interaction of antibodies with recombinant MBP-mutCALR Type 1 fusion protein were collected at 25° C. on a Biacore 8K instrument (Cytiva, Marlborough, Mass.), and all reagents were obtained from Cytiva unless otherwise specified. The experiments were conducted using Tris-buffered saline (pH 7.2), 0.005% Surfactant P20, 1 mM CaCl₂) as running buffer. To prepare the capture surfaces, anti-human IgG (Fc) antibodies (Product #29234600) was amine-coupled onto a CM4 chip (Product #BR100534) under standard conditions using an Amine Coupling Kit (Product #BR100050). […] The kinetics parameters were obtained by applying 1:1 binding model to fit the data from multiple-cycle injection experiments using Biacore Insight Evaluation software.

First: B1
Second: B2
The Kd of the first is 9.1-fold lower: 1.38 nM for the first, 12.5 nM for the second.

First: B3
Second: B4
The Kd of the first is 2.2-fold lower: 4.08 nM for the first, 9.04 nM for the second. The first binds more tightly here.

B5 and B6 are within 1.5-fold of each other in Kd: 2.66 nM for the first, 2.58 nM for the second.

Going from B7 to B8, the Kd rises from 4.46 nM to 10.1 nM (2.3-fold). The first binds more tightly here.

Compared with B1, B2 is 12-fold higher in koff: 0.00292 s⁻¹ for the first, 0.0354 s⁻¹ for the second.

First: B3
Second: B4
The koff of the first is 5.5-fold lower: 0.0024 s⁻¹ for the first, 0.0132 s⁻¹ for the second.

B5 and B6 are within 1.5-fold of each other in koff: 0.00628 s⁻¹ for the first, 0.00664 s⁻¹ for the second.

Going from B7 to B8, the koff rises from 0.00498 s⁻¹ to 0.0301 s⁻¹ (6-fold).

B1 and B2 are within 1.5-fold of each other in kon: 2.11e+06 M⁻¹ s⁻¹ for the first, 2.84e+06 M⁻¹ s⁻¹ for the second.

Compared with B3, B4 is 2.5-fold higher in kon: 589000 M⁻¹ s⁻¹ for the first, 1.46e+06 M⁻¹ s⁻¹ for the second.

B5 and B6 are within 1.5-fold of each other in kon: 2.37e+06 M⁻¹ s⁻¹ for the first, 2.57e+06 M⁻¹ s⁻¹ for the second.

First: B7
Second: B8
The kon of the first is 2.7-fold lower: 1.12e+06 M⁻¹ s⁻¹ for the first, 2.99e+06 M⁻¹ s⁻¹ for the second.
